Where no end group is shown, it is not given here. Side-chain parts run from the residue outwards. The star is where a group is joined. PEG4 (disulfide) = PEG4 chain joined to the cysteine by a disulfide bond, carrying benzylguanine; benzylguanine = O6-benzylguanine; Octanoyl = CCCCCCCC(=O)*
Key:
MIN6 cells [1] = experiment: Necrosis assay (propidium iodide/calcein); assay type: cell-based; settings: 10 mM BME, 60 min incubation
Protocol: For quantification of necrosis, MIN6 cells were labeled with 5 μM calcein-AM and 5 μM propidium iodide for 30 min. Cells were imaged in HEPES-bicarbonate buffer using the Crest X-Light spinning disk system, and excitation was performed at λ = 458–482 nm and λ = 543–558 nm for calcein and propidium iodide, respectively. Emitted signals were detected at λ = 500–550 nm and λ = 602–662 nm for calcein and propidium iodide, respectively. Total area was quantified using the threshold plugin for Fiji and expressed as the ratio propidium iodide/calcein, as described.[70]

MIN6 cells [2] = experiment: Apoptosis assay (cleaved caspase 3 immunostaining); assay type: cell-based; settings: 10 mM BME, 60 min incubation, n = 3 experiments
Protocol: For quantification of apoptosis, MIN6 cells were incubated with 10 mM BME for the indicated times and fixed in 4% paraformaldehyde. Immunostaining was performed using an antibody against Cleaved Caspase 3 (CC3; 1:400; #9661, Cell Signaling Technology), before secondary goat antirabbit Alexa Fluor 633 (1:1000) and Hoechst 33342 staining. Cells were imaged using a Zeiss LSM 880 confocal microscope, with excitation delivered at λ = 405 nm and λ = 633 nm. Emitted signals were collected at λ = 410–550 nm and λ = 641–695 nm for Hoechst 33342 and Alexa Fluor 633, respectively. Total area was quantified using the threshold plugin for Fiji, and results were expressed as the ratio CC3/Hoechst, as described.[69]

human GHS-R1a [3] = target: T1, human GHS-R1a (Homo sapiens, UniProt Q92847); experiment: Inositol phosphate (IP-1) accumulation assay, IP-One HTRF; assay type: cell-based; settings: HEK293T-GHS-R1a cells; mean ± SEM, n = 2 assays in triplicate
T1 construct: expressed in transfected cells; host or cells: HEK293T cells

SNAP_GLP-1R = SNAP_GLP-1R (UniProt P43220)
human GHS-R1a [4] = target: T2, human GHS-R1a (human, UniProt Q92847 1-366); experiment: cell-based or functional assay
human GHS-R1a [5] = target: T2, human GHS-R1a; experiment: AlphaScreen or HTRF; Tag-lite HTRF competition (Cisbio) on HEK293T-GHS-R1a cells; Ki calculated from binding curves; the labelled tracer is not named; as in ref. 72; n = 2 assays in triplicate; settings: one partner purified

T2 sequence (Q92847 whole entry): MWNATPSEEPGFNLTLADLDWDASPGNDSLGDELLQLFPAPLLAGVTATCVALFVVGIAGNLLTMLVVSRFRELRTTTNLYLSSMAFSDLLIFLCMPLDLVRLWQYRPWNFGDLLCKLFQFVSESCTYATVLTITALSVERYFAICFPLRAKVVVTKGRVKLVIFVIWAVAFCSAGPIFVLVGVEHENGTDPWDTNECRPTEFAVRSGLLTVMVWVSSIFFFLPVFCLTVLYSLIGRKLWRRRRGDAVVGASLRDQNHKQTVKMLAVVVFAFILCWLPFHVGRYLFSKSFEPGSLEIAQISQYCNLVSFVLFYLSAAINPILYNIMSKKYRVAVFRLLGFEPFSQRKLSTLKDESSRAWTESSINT
T1 sequence (Q92847 whole entry): as above
Chain of SNAP_GLP-1R (P43220 whole entry): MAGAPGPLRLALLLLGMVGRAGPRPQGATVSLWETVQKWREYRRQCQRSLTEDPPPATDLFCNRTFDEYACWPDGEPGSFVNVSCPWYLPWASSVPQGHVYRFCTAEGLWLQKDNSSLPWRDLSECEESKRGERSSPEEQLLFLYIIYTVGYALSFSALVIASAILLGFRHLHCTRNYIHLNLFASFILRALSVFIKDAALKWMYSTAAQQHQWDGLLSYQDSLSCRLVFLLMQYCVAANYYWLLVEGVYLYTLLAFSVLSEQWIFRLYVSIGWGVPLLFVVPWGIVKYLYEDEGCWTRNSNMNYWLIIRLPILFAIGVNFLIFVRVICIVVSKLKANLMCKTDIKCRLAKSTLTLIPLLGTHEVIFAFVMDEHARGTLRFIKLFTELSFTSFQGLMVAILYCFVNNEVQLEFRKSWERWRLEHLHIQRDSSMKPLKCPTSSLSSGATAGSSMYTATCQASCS

Row | Molecule | EC50 of IP-1 accumulation (IP-One HTRF kit) in HEK293T-GHS-R1a cells (human GHS-R1a [4]) | Ki (human GHS-R1a [5]) | further results
1 | OCCS [BME, beta-mercaptoethanol] | – | – | necrosis (MIN6 cells [1]): did not display significant signs of necrosis; apoptosis (cleaved caspase 3) (MIN6 cells [2]): did not display significant signs of necrosis (Figure S4a) or apoptosis
2 | CCCCCCCC(=O)OC[C@H](NC(=O)[C@H](CO)NC(=O)CN)C(=O)N[C@@H](Cc1ccccc1)C(=O)N[C@@H](CC(C)C)C(=O)N[C@@H](CO)C(=O)N1CCC[C@H]1C(=O)N[C@@H](CCC(=O)O)C(=O)N[C@@H](Cc1c[nH]cn1)C(=O)N[C@@H](CCC(N)=O)C(=O)N[C@@H](CCCNC(=N)N)C(=O)N[C@H](C(=O)N[C@@H](CCC(N)=O)C(=O)N[C@@H](CCC(N)=O)C(=O)N[C@@H](CCCNC(=N)N)C(=O)N[C@@H](CCCCN)C(=O)N[C@@H](CCC(=O)O)C(=O)N[C@@H](CO)C(=O)N[C@@H](CCCCN)C(=O)N[C@@H](CCCCN)C(=O)N1CCC[C@H]1C(=O)N1CCC[C@H]1C(=O)N[C@@H](C)C(=O)N[C@@H](CCCCN)C(=O)N[C@@H](CC(C)C)C(=O)N[C@@H](CCC(N)=O)C(=O)N1CCC[C@H]1C(=O)N[C@@H](CCCNC(=N)N)C(=O)NCC(=O)NCC(=O)N[C@@H](CS)C(=O)NCC(=O)O)C(C)C [ghrelinGGCG] | – | – | EC50 (human GHS-R1a [3]): 11.1 ± 0.4 nM
3 | S39C-Ex4 (peptide) | – | – | EC50 of cAMP accumulation (LANCE TR-FRET, 30 min) in YFP-AD293-SNAP GLP-1R cells (SNAP_GLP-1R): 0.0988 nM
4 | GSS(Octanoyl)FLSPEHQRVQQRKESKKPPAKLQPRGGCG [ghrelinGGCG] | 11.2 nM | 19.6 nM | –
5 | GSS(Octanoyl)FLSPEHQRVQQRKESKKPPAKLQPRGGC([PEG4 (disulfide)-benzylguanine])G [GhrelON] | 5.5 nM | 6.1 nM | –

Reference: paper PMC5832994 (ACS Central Science, 2018)
